Test results published in US20260027208A1 (published 2026).
Values belong to the binder of their own block, whether it stands above or below them.

Experiments:
[1] = target: T1, KRAS G12D peptide on HLA-A*11:01 (human); experiment: killing
T1 peptide: VVVGADGVGK
Experimental: Red fluorescent Hpaf-II cells, a KRAS-G12D expressing tumor cell line transduced to express HLA-A11, were cocultured at 3:1 effector:target cell ratio with TCR32-transduced CD8⁺ T cells having wild type TRAC and TRBC loci or TCR32-transduced TRAC/TRBC double knockout (dKO) CD8⁺ T cells. Total red object integrated intensity (a measure of tumor cell volume) was evaluated over time. Red fluorescence was measured by live cell imaging using a life cell analysis system, the IncuCyte S3 microscope and software package. CD8⁺ T cell cytotoxicity is indicated by a decrease in the total red target cell area per well as compared to no treatment wells. Additional tumor cells were added at 72 and 140 hours to assess TCR-mediated tumor cell lysis by transduced T cells in the presence of persistent antigen. Reductions in tumor cells were observed when co-cultured with TCR-transduced cells (FIG. 2).

[2] = target: T1, KRAS G12D peptide on HLA-A*11:01; experiment: activation reporter or marker

B1: TCR32 (TCR, V domains shown)
Valpha: AQTVTQSQPEMSVQEAETVTLSCTYDTSENNYYLFWYKQPPSRQMILVIRQEAYKQQNATENRFSVNFQKAAKSFSLKISDSQLGDTAMYFCAFMTPITQGGSEKLVFGKGTKLTVNP
Vbeta: ETGVTQSPTHLIKTRGQQVTLRCSSQSGHNTVSWYQQALGQGPQFIFQYYREEENGRGNFPPRFSGLQFPNYSSELNVNALELDDSALYLCASSDRGWNEQFFGPGTRLTVL
binding result [1]: recognises

B2: TCR81 (TCR, V domains shown)
Valpha: AQTVTQSQPEMSVQEAETVTLSCTYDTSESDYYLFWYKQPPSRQMILVIRQEAYKQQNATENRFSVNFQKAAKSFSLKISDSQLGDAAMYFCAYCNPNAGKSTFGDGTTLTVKP
Vbeta: DVKVTQSSRYLVKRTGEKVFLECVQDMDHENMFWYRQDPGLGLRLIYFSYDVKMKEKGDIPEGYSVSREKKERFSLILESASTNQTSMYLCASSFRLREGLGEQFFGPGTRLTVL
binding result [2]: recognises

B5: TCR80 (TCR, V domains shown)
Valpha: AQTVTQSQPEMSVQEAETVTLSCTYDTSESDYYLFWYKQPPSRQMILVIRQEAYKQQNATENRFSVNFQKAAKSFSLKISDSQLGDAAMYFCASTLSSGDKLTFGTGTRLAVRP
Vbeta: EPEVTQTPSHQVTQMGQEVILRCVPISNHLYFYWYRQILGQKVEFLVSFYNNEISEKSEIFDDQFSVERPDGSNFTLKIRSTKLEDSAMYFCASSGVDRAYGYTFGSGTRLTVV
binding result [2]: recognises

Next, values leading:

binding result [2]: recognises
B3: TCR79 (TCR, V domains shown)
Valpha: QKEVEQNSGPLSVPEGAIASLNCTYSDRVSQSFFWYRQYSGKSPELIMSIYSNGDKEDGRFTAQLNKASQYVSLLIRDSQPSDSATYLCAVRWAGGTSYGKLTFGQGTILTVHP
Vbeta: DTGVSQDPRHKITKRGQNVTFRCDPISEHNRLYWYRQTLGQGPEFLTYFQNEAQLEKSRLLSDRFSAERPKGSFSTLEIQRTEQGDSAMYLCATPLGRTNEQFFGPGTRLTVL

binding result [2]: recognises
B4: TCR69 (TCR, V domains shown)
Valpha: TQLLEQSPQFLSIQEGENLTVYCNSSSVFSSLQWYRQEPGEGPVLLVTVVTGGEVKKLKRLTFQFGDARKDSSLHITAAQPGDTGLYLCAGKTTDSWGKLQFGAGTQVVVTP
Vbeta: EPEVTQTPSHQVTQMGQEVILRCVPISNHLYFYWYRQILGQKVEFLVSFYNNEISEKSEIFDDQFSVERPDGSNFTLKIRSTKLEDSAMYFCASSEWAGTEAFFGQGTRLTVV
